The values below come from patent US20230375530A1, “HUMAN BLOOD-BRAIN BARRIER MODEL FOR IMMUNOLOGICAL STUDIES” (WISCONSIN ALUMNI RESEARCH FOUNDATION, priority 2020, published 2023).

Series [1] has as its system UMM- and DMM-differentiated BMEC-like cells.
Protocol: Unconditioned medium method (UMM) (14, 16) and defined medium method (DMM) (17) were slightly modified and used to differentiate brain microvascular endothelial-like cells (BMEC-like cells). In brief, hiPSCs were seeded onto a Matrigel-coated plate in mTeSR1 supplemented with 10 μM ROCK inhibitor Y-27632 (Selleckchem, Houston, TX, USA) for 24 hours (day −3 or day −4). […] At day 0, cells were induced to differentiate using specific medium for each method: For UMM, medium was switched to unconditioned medium (DMEM/F12 with 20% Knockout serum replacement, 1× non-essential amino acids, 0.5× Glutamax, and 0.1 mM β-mercaptoethanol) and changed every day for 6 days. For DMM, medium was switched to DeSR1 (DMEM/F12 with 1× non-essential amino acids, 0.5× Glutamax, and 0.1 mM β-mercaptoethanol) supplemented with 6 μM CHIR99021 (Selleckchem, Houston, TX, USA) and cultured for 24 hours. […]
(§1) Permeability of EC monolayers was assessed by measuring the clearance of sodium fluorescein (NaFl, 376.3 Da, Sigma-Aldrich) as previously described (16). […] Medium samples containing fluorescent tracer that had diffused across the monolayers were collected from the bottom well every 15 min for a total of 60 min, and fluorescence intensity was measured in a Tecan Infinite M1000 multi-well reader (Tecan Trading AG, Männedorf, Switzerland). […]
The test system of series [2] is hiPSC-derived naïve ECs.
Protocol: CD34^+ CD31^+ endothelial progenitor cells (EPCs) were differentiated from hiPSCs as described (32, 33). In brief, hiPSCs were seeded onto a Matrigel-coated plate in mTeSR1 supplemented with 5 μM ROCK inhibitor Y-27632 for 24 hours (day −3). Seeding densities at day −3 were optimized between 16′000/cm^2 to 132′000/cm^2 depending on donor and passage in order to obtain high number of CD34^+ CD31^+ EPCs. At day 0 and day 1, medium was changed to LaSR basal medium (Advanced DMEM/F12, 2.5 mM GlutaMAX, and 60 μg/ml ascorbic acid) supplemented with 8 μM CHIR99021. At day 2, medium was switched to LaSR basal medium and changed every day for another 3 days. […] Purified EPCs were seeded onto collagen IV/fibronectin-coated Transwell filters at a density of 100′000/cm^2 or collagen-IV (10 μg/ml)-coated culture plates at a density of 10′000-20′000/cm^2 in hECSR medium and used for assay or further extended EC culture.
as §1
Series [3] has as its system EECM-BMEC-like cell monolayers. Format: in vitro ADME, human. The protocol:
EPCs purified as described above were plated on collagen IV (10 μg/ml)-coated plates in hECSR medium in the presence of 5 μM ROCK inhibitor Y-27632 of 10′000-20′000/cm^2 as described before (33). Twenty-four hours later, medium was changed to hECSR without ROCK inhibitor and then medium was changed every 2 days. Once the cells reached 100% confluency (FIG. 3B (i)), the cells were passaged using Accutase (Innovative Cell Technologies, San Diego, CA, USA). In detail, medium was removed and 1 ml of Accutase was added to the 6-well plate and cells were carefully observed under an inverted microscope (Zeiss Axiovert 25). Once endothelial cells started to become round (FIG. 3B (ii)), the endothelial cells were physically detached by tapping the 6-well plate (FIG. 3B (iii)). […] These cell densities were found optimal for achieving closed monolayers. Coating with collagen IV/fibronectin for Transwell filters was chosen as it was previously shown to be optimal for growing primary BMECs and for UMM-BMEC-like cells. […]
Bovine pericytes (15), the human brain pericyte cell line (HBPCT) (34), the human astrocyte cell line (hAST) (35), and hiPSC-derived astrocytes (iPS_AC) (29) were obtained and maintained as previously described. […] Transendothelial electrical resistance (TEER) was measured using a Volt-Ohm-Meter (Millicell ERS-2, MERSSTX01-electrode). […]

Series [4] relates to hPSC-derived endothelial progenitors (Passage 1 ECs). In words: Immunocytochemistry of Passage 1 ECs treated with Wnt ligands, CHIR or conditioned media. Type of series: cell-based, human. Particulars: for fraction of GLUT-1+ ECs vs control: Passage 1 ECs, 6 days, Wnt3a 20 ng/mL, Wnt7a 50 ng/mL, Wnt7b 50 ng/mL; for EC purity (proportion of ECs compared to SMLCs): Passage 1 cultures, 6 days treatment. The protocol:
Collagen IV (Sigma-Aldrich) was dissolved in 0.5 mg/mL acetic acid to a final concentration of 1 mg/mL. Collagen IV-coated plates were prepared by diluting a volume of this stock solution 1:100 in water, adding the resulting solution to tissue culture plates, or #1.5 glass bottom plates (Cellvis, Sunnyvale, CA) for cells intended for confocal imaging (1 mL per well for 6-well plates, 0.5 mL per well for 12-well plates, 0.25 mL per well for 24-well plates), and incubating the plates for 1 h at RT. Collagen IV coating solution was removed and EPCs obtained as described above were suspended in hECSR medium and plated at approximately 3×10^4 cells/cm^2. In some experiments, cells were suspended in NR-CM or Astro-CM. In some experiments, ligands and small molecules were added to hECSR medium: CHIR 99021 (Tocris) was used at 4 μM except where indicated; DMSO (Sigma-Aldrich) was used as a vehicle control for CHIR; Wnt3a (R&D Systems) was used at 20 ng/mL; Wnt7a (Peprotech, Rocky Hill, NJ) was used at 50 ng/mL; Wnt7b (Abnova, Tapei, Taiwan) was used at 50 ng/mL; R-spondin 1 (Rspo1; Peprotech) was used at 50 ng/mL; doxycycline was used at 1, 2, or 4 μg/mL. The hECSR medium or CM, including any ligands or small molecules, was replaced every other day until confluent (typically 6 days). We denote this time point “Passage 1.”
Immunocytochemistry was performed in 24-well plates. Cells were washed once with 500 μL DPBS and fixed with 500 μL cold (−20° C.) methanol for 5 min, except cells intended for calponin/SM22a and CD31/Ki67 detection, which were fixed with 500 μL of 4% paraformaldehyde for 15 min. Cells were washed three times with 500 μL DPBS and blocked in 150 μL DPBS supplemented with 10% goat serum (Life Technologies) for 1 h at room temperature, except cells intended for calponin/SM22α detection, which were blocked and permeabilized in DPBS supplemented with 3% BSA and 0.1% Triton X-100, or cells intended for CD31/Ki67 detection, which were blocked and permeabilized in DPBS supplemented with 5% non-fat dry milk and 0.4% Triton X-100. Primary antibodies diluted in 150 μL of the above blocking solutions (see Table 6 for antibody information) were added to cells and incubated overnight at 4° C. on a rocking platform. Cells were washed three times with 500 μL DPBS. Secondary antibodies diluted in 150 μL of the above blocking solutions (see Table 6 for antibody information) were added to cells and incubated for 1 h at room temperature on a rocking platform, protected from light. Cells were washed three times with 500 μL DPBS, followed by 5 min incubation with 500 μL DPBS plus 4 μM Hoechst 33342 (Life Technologies). Images were acquired using an Eclipse Ti2-E epifluorescence microscope (Nikon, Tokyo, Japan) with a 20× objective or an A1R-Si+ confocal microscope (Nikon) with a 100× oil objective. Confocal images were acquired with 1 μm slice spacing.
Images were analyzed using FIJI (ImageJ) software. For epifluorescence images, 5 fields (20×) were analyzed per well, with 3-4 wells per treatment condition. For quantification of cell number, EC colonies were manually outlined, and the Analyze Particles function was used to estimate the number of nuclei within the EC colonies. Nuclei outside the EC colonies were manually counted. EC purity (% EC) was calculated as the number of nuclei within EC colonies relative to total nuclei. To estimate % GLUT-1^+ ECs, cells within the EC colonies with membrane-localized GLUT-1 immunoreactivity (e.g., arrowheads in FIG. 24B) were manually counted. To estimate % Ki67^+ ECs, cells within the EC colonies with at least one nuclear-localized Ki67 punctum were manually counted. For quantification of fluorescence intensity in epifluorescence images, EC colonies were manually outlined, and the Measure function was used to obtain the mean fluorescence intensity for each image channel (fluorophore). A cell-free area of the plate was similarly quantified for background subtraction. […]

Regarding `O=C([O-])c1ccccc1-c1c2ccc(=O)cc-2oc2cc([O-])ccc12.[Na+].[Na+]` [sodium fluorescein], in series [1], the “permeability to sodium fluorescein” value was “less than 0.6 ×10^−4 cm/min”. For the same molecule, in series [2], the “PeNaFl, permeability to sodium fluorescein” value is reported as 2-10 ×10^−3 cm/min. In addition, the “lower permeability compared to naïve ECs” value in series [3] is listed as ~10 fold.

B1: Wnt7a: recombinant Wnt ligand (Peprotech) (protein, UniProt O00755 32-349, looked up)
Protein Wnt-7a: LGASIICNKIPGLAPRQRAICQSRPDAIIVIGEGSQMGLDECQFQFRNGRWNCSALGERTVFGKELKVGSREAAFTYAIIAAGVAHAITAACTQGNLSDCGCDKEKQGQYHRDEGWKWGGCSADIRYGIGFAKVFVDAREIKQNARTLMNLHNNEAGRKILEENMKLECKCHGVSGSCTTKTCWTTLPQFRELGYVLKDKYNEAVHVEPVRASRNKRPTFLKIKKPLSYRKPMDTDLVYIEKSPNYCEEDPVTGSVGTQGRACNKTAPQASGCDLMCCGRGYNTHQYARVWQCNCKFHWCCYVKCNTCSERTEMYTCK
B1: in series [4], the “fraction of GLUT-1+ ECs vs control” value is “slightly increased” and the “EC purity (proportion of ECs compared to SMLCs)” value is recorded as “increased the proportion of ECs”.

B2: Wnt7b: recombinant Wnt ligand (Abnova) (protein, UniProt P56706 25-349, looked up)
Protein Wnt-7b: ALSSVVALGANIICNKIPGLAPRQRAICQSRPDAIIVIGEGAQMGINECQYQFRFGRWNCSALGEKTVFGQELRVGSREAAFTYAITAAGVAHAVTAACSQGNLSNCGCDREKQGYYNQAEGWKWGGCSADVRYGIDFSRRFVDAREIKKNARRLMNLHNNEAGRKVLEDRMQLECKCHGVSGSCTTKTCWTTLPKFREVGHLLKEKYNAAVQVEVVRASRLRQPTFLRIKQLRSYQKPMETDLVYIEKSPNYCEEDAATGSVGTQGRLCNRTSPGADGCDTMCCGRGYNTHQYTKVWQCNCKFHWCCFVKCNTCSERTEVFTCK
Take B2: in series [4], the “fraction of GLUT-1+ ECs vs control” value is given as “not Wnt7b alone”.

B3: Rspo1: potentiator of Wnt signaling (protein, UniProt Q2MKA7 21-263, looked up)
R-spondin-1: SRGIKGKRQRRISAEGSQACAKGCELCSEVNGCLKCSPKLFILLERNDIRQVGVCLPSCPPGYFDARNPDMNKCIKCKIEHCEACFSHNFCTKCKEGLYLHKGRCYPACPEGSSAANGTMECSSPAQCEMSEWSPWGPCSKKQQLCGFRRGSEERTRRVLHAPVGDHAACSDTKETRRCTVRRVPCPEGQKRRKGGQGRRENANRNLARKESKEAGAGSRRRKGQQQQQQQGTVGPLTSAGPA
In the case of B3, the “EC purity or expression of GLUT-1, claudin-5 or caveolin-1” value in series [4] (Rspo1 50 ng/mL in combination with Wnt ligands) is on record as “did not affect”.

B4: Wnt3a: ligand widely used to activate canonical Wnt/β-catenin signaling (R&D Systems) (protein, UniProt P56704 19-352, looked up)
Protein Wnt-3a: SYPIWWSLAVGPQYSSLGSQPILCASIPGLVPKQLRFCRNYVEIMPSVAEGIKIGIQECQHQFRGRRWNCTTVHDSLAIFGPVLDKATRESAFVHAIASAGVAFAVTRSCAEGTAAICGCSSRHQGSPGKGWKWGGCSEDIEFGGMVSREFADARENRPDARSAMNRHNNEAGRQAIASHMHLKCKCHGLSGSCEVKTCWWSQPDFRAIGDFLKDKYDSASEMVVEKHRESRGWVETLRPRYTYFKVPTERDLVYYEASPNFCEPNPETGSFGTRDRTCNVSSHGIDGCDLLCCGRGHNARAERRREKCRCVFHWCCYVSCQECTRVYDVHTCK
For the molecule B4, in series [4], the “fraction of GLUT-1+ ECs vs control” value is listed as “significant increase” and the “EC purity (proportion of ECs compared to SMLCs)” value is given as “not Wnt3a”.
